# Laboratory results: patent US7495116B2, “Phospholipid derivative” (NOF Corporation, priority 2002, dated 2009)
# Test: Determination of salt tolerant effect (clouding point, evaluation as surfactant)
# Format: physicochemical
# Conditions: 1 weight % solution in 5 weight % aqueous sodium sulfate
# Experimental: As a result of the measurement, the clouding point was not detectable even when the temperature was raised up to 80° C.
substance,measurement,value
monomethylpolyoxyethylenecarbamyl (Molecular Weight: 2000) distearoylphosphatidylethanolamine [Comparative Synthesis Example 1],Clouding point,50.0 °C
